Measurements taken from patent publication US20260152577A1.

Molecular target: human CD3 on T cells (human) (UniProt P07766)
Test: FACS on Jurkat cells

- affinity: 0.27 nM
Substance: OKT3-hIgG1 (antibody)
